# From US11708423B2, “Chimeric engulfment receptor molecules and methods of use” (CERO THERAPEUTICS, INC., priority 2017, dated 2023)
# “Also recorded” adds a separate entry of the source.
# B1: CER126: Tim4 binding and transmembrane domains, TLR2 primary and TRAF2 secondary signaling domains; SEQ ID NO:174 (protein)
# chain: MSKGLLLLWLVTELWWLYLTPAASEDTIIGFLGQPVTLPCHYLSWSQSRNSMCWGKGSCPNSKCNAELLRTDGTRIISRKSTKYTLLGKVQFGEVSLTISNTNRGDSGVYCCRIEVPGWFNDVKKNVRLELRRATTTKKPTTTTRPTTTPYVTTTTPELLPTTVMTTSVLPTTTPPQTLATTAFSTAVTTCPSTTPGSFSQETTKGSAFTTESETLPASNHSQRSMMTISTDIAVLRPTGSNPGILPSTSQLTTQKTTLTTSESLQKTTKSHQINSRQTILIIACCVGFVLMVLLFLAFLHRFHGLWYMKMMWAWLQAKRKPRKAPSRNICYDAFVSYSERDAYWVENLMVQELENFNPPFKLCLHKRDFIPGKWIIDNIIDSIEKSHKTVFVLSENFVKSEWCKYELDFSHFRLFDENNDAAILILLEPIEKKAIPQRFCKLRKIMNTKTYLEWPMDEAQREGFWVNLRAAIKSMAAASVTPPGSLELLQPGFSKTLLGTKLEAKYLCSACRNVLRRPFQAQCGHRYCSFCLASILSSGPQNCAACVHEGIYEEGISILESSSAFPDNAARREVESLPAVCPSDGCTWKGTLKEYESCHEGRCPLMLTECPACKGLVRLGEKERHLEHECPERSLSCRHCRAPCCGADVKAHHEVCPKFPLTCDGCGKKKIPREKFQDHVKTCGKCRVPCRFHAIGCLETVEGEKQQEHEVQWLREHLAMLLSSVLEAKPLLGDQSHAGSELLQRCESLEKKTATFENIVCVLNREVERVAMTAEAC
# modifications: CER126 protein
# Columns and labels:
# [1] = system: H1975 NSCLC cells; assay: LDH-based cytotoxicity, H1975 cells, 18 hours co-culture; assay type: cell-based; conditions: Osimeritinib 0, 500, 1000 nM, E:T 2:1 or 5:1
# Description: H1975 NSCLC cells were co-cultured with CER123- or CER126-expressing CD4+ T cells with increasing concentrations of Osimeritnib (0, 500 nM, or 1000 nM). Mock-transduced (vector only) T cells were used as control. Assays were performed using CER modified T cells purified by FACS using an EGFR specific antibody 7 days after activation using CD3 & CD28 microbeads. CER modified T cells and H1975 cells were co-cultured at effector:target cell ratios of 2:1 or 5:1. After 18 hours of co-culture, bulk supernatants were evaluated using LDH-based cytotoxicity assay.
# [2] = system: HCC159 lung adenocarcinoma cells; assay: MTT viability of HCC159 cells co-cultured with CER T cells and Osimeritinib; assay type: cell-based; conditions: Osimeritinib 0.1, 1, 5 nM; E:T 1:1, 2:1, 5:1; 48 hours
# Description: HCC159 lung adenocarcinoma cells harboring an EGFR mutation were co-cultured with CER123- or CER126-expressing CD4+ T cells with increasing concentrations of Osimeritinib (0.1 nM, 1 nM, or 5 nM). Mock transduced (vector only) T cells were used as control. After 48 hours of co-culture at effector: target cell ratios at 1:1, 2:1 or 5:1 in the presence of drug, T cells were washed away, and the number of viable HCC159 cells was quantified using a calorimetric MTT assay. Cell viability experiments were performed in triplicates and presented as % of control with (FIG. 48A).
# [3] = system: HCC159 lung adenocarcinoma cells; assay: LDH-based cytotoxicity, HCC159 cells; assay type: cell-based; conditions: Osimeritinib 0, 1, 5 nM; E:T 2:1 or 5:1; 18 hours
# Description: HCC159 lung adenocarcinoma cells were co-cultured with CER123- or CER126-expressing CD4+ T cells with increasing concentrations of Osimeritnib (0, 1 nM, 5 nM). After 18 hours of co-culture, bulk supernatants were evaluated using a LDH-based cytotoxicity assay. T cells assays were performed using purified, EGFR^+ (transduction marker), CER modified T cells 7 days after activation using CD3 & CD28 microbeads at effector:target cell ratios of 2:1 or 5:1. Control “Mock” T cells were transduced with vector alone. […] Bulk supernatants were also analyzed after 18 hours of co-culture for Interferon Gamma (IFNγ) secretion (FIG. 50). Control “Mock” T cells were transduced with vector alone.
# [4] = system: ALK+A549 cells; assay: LDH cytotoxicity assay, A549 ALK+ cells, 18 hours co-culture; assay type: cell-based
# Description: An ELM4-ALK translocation was introduced into A549 cells. […] Assays were performed with purified tEGFR^+ (transduction marker), CER-expressing T cells 7 days after activation using CD3 & CD28 microbeads at effector: target cell ratios of 2:1 or 5:1. Mock T cells were transduced with vector alone and used as control. After 18 hours of co-culture, bulk supernatants were evaluated using a LDH cytoxicity assay indicating cell killing (FIGS. 65A-B).
# [5] = system: A549 cells introduced with an ELM4-ALK translocation; assay: Interferon Gamma secretion, A549 ALK+ co-culture; assay type: cell-based; conditions: Crizotinib (3700 nM) or Alectinib (3700 nM), 18 hours, E:T 2:1 and 5:1
# Description: After 18 hours of co-culture, bulk supernatants were evaluated for Interferon Gamma secretion (FIGS. 66A-B). Assays were performed using purified, tEGFR^+ (transduction marker), CER-expressing T cells 7 days after activation using CD3 & CD28 microbeads at effector: target ratios of (2:1 & 5:1). Control “Mock” T cells were transduced with vector alone.
# [6] = system: SCC152 cells; assay: Magnitude breadth of phagocytosis by CER-transduced CD4+ T cells; assay type: cell-based, human; conditions: CD4+ T cells
# Description: Various CER-modified CD4+ T cells were also evaluated for breadth of response to determine whether a particular CER confers a broad phagocytic response of low magnitude (e.g., 10% engulfment in 90% of cells) or a less frequent but strong phagocytic response (e.g., 90% engulfment in 10% of cells) in the host cells. CD8+ T cells were transduced with HPV16 E7 specific TCR as described in Example 5. CD4+ T cells were transduced with lentiviral vectors comprising a CER21, CER27, CER104, CER116, or CER117 nucleic acid. Mock-transduced (vector alone) CD4+ T cell were used as control. CD4+/CER+ and CD8+/E7 TCR+ T cells were stained with CELLTRACE violet. […] HPV16 E7 TCR transduced CD8+ T cells and selected CER transduced CD4+ T cells were mixed at a 1:1 ratio and co-cultured with SCC152 cells at a 1:1 ratio for 8 hours. Phagocytosis of target SCC152 cells by CER-transduced CD4+ T cells was analyzed by fluorescence microscopy. […] The horizontal axis represents the % area of CER-transduced CD4+ T cells having engulfment or % area of […]. This measure was rarely above 40% across CER types tested. The vertical axis represents the proportion of CER-transduced CD4+ T cells that were phagocytic. For CER104, about 20% of CER104-transduced CD4+ T cells have more than 10% engulfment. For CER117-transduced CD4+ T cells, less than 10% have more than 10% engulfment.
molecule,measurement,setting,value
B1,cell killing of H1975 cells (LDH),[1],inducible cell killing responses
same,growth/viability of HCC159 cells (MTT),[2],dose-dependent target cell killing responses; also recorded: synergistically suppressed
same,cell killing of HCC159 cells (LDH),[3],inducible cell killing responses
same,micrograph images of A549 co-culture,[4]; Crizotinib 3700 nM,near complete loss of Crizotinib-treated A549 cells
same,cell killing of A549 ALK+ cells (LDH),"[4]; Crizotinib or Alectinib 0, 2500, 3700 nM, E:T 2:1 or 5:1, 18 hours",dose-dependent inducible cytokine secretion and cell killing responses
same,Interferon Gamma secretion,[5],dose-dependent inducible cytokine secretion
same,engulfment of SCC152 target cells (fluorescent micrograph),[6],SCC152 target cells engulfed
